# Laboratory results taken from publication PMC314469, “Protein Interaction Networks by Proteome Peptide Scanning” (PLoS Biology, 2004).
# B1: YDR390C 151-164 (peptide)
# chain: YMQPIIPGKTESFE
# B2: YFR048W 228-241 (peptide)
# chain: YTLPLLPGKGGFRI
# B3: YEL040W 243-256 (peptide)
# chain: YQYPQTPSKVDISI
# B4: YKL108W 203-216 (peptide)
# chain: YYGPNSPLKLDEEN
# B5: YGR293C 125-138 (peptide)
# chain: YILPKNPFRVPSEM
# B6: YDR420W 1404-1417 (peptide)
# chain: YSNPQTPLRSLAGL
# B7: YIL054W 33-46 (peptide)
# chain: YTNPRAPGKLQDSH
# B8: YGR166W 507-520 (peptide)
# chain: YKIPVVPPRETYFA
# B9: YDR001C 36-49 (peptide)
# chain: YGPPTDPRKQKQAK
# B10: YDR415C 17-30 (peptide)
# chain: WSYPYEPLRVLQVG
# B11: YHR072W 222-235 (peptide)
# chain: YSLPMHPGRWWVHT
# B12: YKL178C 366-379 (peptide)
# chain: YRIPDDPRKSQNKS
# B13: YNL005C 96-109 (peptide)
# chain: YLDPFHPKRKFIGV
# B14: YKR028W 957-970 (peptide)
# chain: YTTPKTPPRPKTIL
# B15: YNR006W 578-591 (peptide)
# chain: YDFPTVPARKFVQP
# B16: YER114C 448-461 (peptide)
# chain: YPSPAQPPKSPLLN
# B17: YLR305C 1424-1437 (peptide)
# chain: YWAPVSPLKSINLF
# B18: YCR088W 446-459 (peptide)
# chain: AAQPPLPSRNVASG
# B19: YLR213C 295-308 (peptide)
# chain: YRYPQTPMRLEIAV
# Target: T1, Yhr016c SH3 (YSC84_YEAST), P32793
# T1 chain: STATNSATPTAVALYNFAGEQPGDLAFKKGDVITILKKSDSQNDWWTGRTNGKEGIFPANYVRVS
# Assay: SPOT array
row,Binder,"normalised SPOT signal, Boehringer light units (BLU); mean over the file's lines of this peptide"
1,B1,272
2,B2,96.3
3,B3,73.9
4,B4,36
5,B5,124
6,B6,1600
7,B7,238
8,B8,1750
9,B9,209
10,B10,802
11,B11,308
12,B12,80.5
13,B13,34.3
14,B14,27400
15,B15,258
16,B16,22.5
17,B17,168
18,B18,107000
19,B19,365

# Target: T2, Boi1 SH3 (BOI1_YEAST), P38041
# T2 chain: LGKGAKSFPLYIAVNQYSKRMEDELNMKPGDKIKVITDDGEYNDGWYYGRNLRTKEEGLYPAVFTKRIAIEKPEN
# Assay: SPOT array
row,Binder,"normalised SPOT signal, Boehringer light units (BLU); mean over the file's lines of this peptide"
1,B1,62.4
2,B2,107
3,B3,36.3
4,B4,0
5,B5,8450
6,B6,80.5
7,B7,153
8,B8,137
9,B9,156
10,B10,326
11,B11,79.5
12,B12,95.9
13,B13,178
14,B14,42.6
15,B15,1480
16,B16,92.5
17,B17,104
18,B18,98.4
19,B19,208

# Target: T3, Yfr024 SH3 (LSB3_YEAST), P43603
# T3 chain: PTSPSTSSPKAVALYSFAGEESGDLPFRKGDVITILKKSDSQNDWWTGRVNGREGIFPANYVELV
# Assay: SPOT array
row,Binder,"normalised SPOT signal, Boehringer light units (BLU); mean over the file's lines of this peptide"
1,B1,596
2,B2,474
3,B3,141
4,B4,0
5,B5,808
6,B6,2680
7,B7,478
8,B8,3320
9,B9,172
10,B10,2320
11,B11,712
12,B12,351
13,B13,88.7
14,B14,28800
15,B15,804
16,B16,526
17,B17,1590
18,B18,47300
19,B19,1060

# Target: T4, Boi2 SH3 (BOI2_YEAST), P39969
# T4 chain: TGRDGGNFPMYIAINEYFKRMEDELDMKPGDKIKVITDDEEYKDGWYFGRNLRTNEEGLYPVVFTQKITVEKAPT
# Assay: SPOT array
row,Binder,"normalised SPOT signal, Boehringer light units (BLU); mean over the file's lines of this peptide"
1,B1,259
2,B2,20.3
3,B3,36.3
4,B4,12.4
5,B5,384
6,B6,104
7,B7,26.1
8,B8,26.2
9,B9,38.1
10,B10,3020
11,B11,158
12,B12,71.9
13,B13,58.3
14,B14,53.6
15,B15,8.3
16,B16,36.2
17,B17,231
18,B18,62.8
19,B19,146

# Target: T5, Rvs167 SH3 (RV167_YEAST), P39743
# T5 chain: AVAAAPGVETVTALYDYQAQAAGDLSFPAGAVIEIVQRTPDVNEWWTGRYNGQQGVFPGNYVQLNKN
# Assay: SPOT array
row,Binder,"normalised SPOT signal, Boehringer light units (BLU); mean over the file's lines of this peptide"
1,B1,498
2,B2,28.3
3,B3,74.2
4,B4,49.9
5,B5,198
6,B6,260
7,B7,64.7
8,B8,385
9,B9,63.3
10,B10,1090
11,B11,78.1
12,B12,21.3
13,B13,57
14,B14,1060
15,B15,254
16,B16,18.1
17,B17,25.1
18,B18,59700
19,B19,90.7
